Bridges are numbered along the chain shown (N, C = ends). Primed or numbered codes have the meaning given here. [ ]: non-standard residue; d: D form. 8x polyethylene glycol‑amino = O-(8x polyethylene glycol-amino)-tyrosine, SITE 45; 9x polyethylene glycol‑azido = O-(9x polyethylene glycol-azido)-tyrosine, SITE 42; Ygp(4) = Tyr with amino-capped PEG8 (O-(8x polyethylene glycol-amino)-tyrosine); Yn3(4) = Tyr with azide-capped PEG9 (O-(9x polyethylene glycol-azido)-tyrosine); Ygp = O-(8x polyethylene glycol-amino)-tyrosine (Tyr, amino-capped PEG8); Yn3 = O-(9x polyethylene glycol-azido)-tyrosine (Tyr, azide-capped PEG9); Ygp″ = O-(8x polyethylene glycol-amino)-tyrosine; Yn3″ = O-(9x polyethylene glycol-azido)-tyrosine; Ygp(6) = Tyr, amino-capped PEG8; Yn3(6) = Tyr, azide-capped PEG9; PEG4′ = 4x polyethylene glycol; hSer = N[C@@H](CCO)C(=O)O; Nle = CCCC[C@H](N)C(=O)O
T1: IL-2Rβγ on HEK-Blue IL-2Rβγ reporter cells (InvivoGen) (UniProt P14784 27-551; P31785 23-369, limits assumed)
T1 sequence (looked up) 1: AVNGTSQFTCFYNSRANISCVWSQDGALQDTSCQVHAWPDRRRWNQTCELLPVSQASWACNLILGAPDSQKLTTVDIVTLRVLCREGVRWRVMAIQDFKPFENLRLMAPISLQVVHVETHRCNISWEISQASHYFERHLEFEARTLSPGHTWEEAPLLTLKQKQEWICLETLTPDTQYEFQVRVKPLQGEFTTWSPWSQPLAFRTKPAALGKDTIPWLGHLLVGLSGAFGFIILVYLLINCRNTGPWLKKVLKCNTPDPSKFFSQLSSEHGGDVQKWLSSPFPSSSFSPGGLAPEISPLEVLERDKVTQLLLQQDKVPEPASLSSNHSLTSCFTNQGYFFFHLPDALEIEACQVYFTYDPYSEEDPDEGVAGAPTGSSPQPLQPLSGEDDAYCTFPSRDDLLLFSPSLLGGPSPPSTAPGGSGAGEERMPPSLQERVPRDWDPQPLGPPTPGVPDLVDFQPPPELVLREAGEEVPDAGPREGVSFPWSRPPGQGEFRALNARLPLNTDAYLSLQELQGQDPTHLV
T1 sequence (looked up) 2: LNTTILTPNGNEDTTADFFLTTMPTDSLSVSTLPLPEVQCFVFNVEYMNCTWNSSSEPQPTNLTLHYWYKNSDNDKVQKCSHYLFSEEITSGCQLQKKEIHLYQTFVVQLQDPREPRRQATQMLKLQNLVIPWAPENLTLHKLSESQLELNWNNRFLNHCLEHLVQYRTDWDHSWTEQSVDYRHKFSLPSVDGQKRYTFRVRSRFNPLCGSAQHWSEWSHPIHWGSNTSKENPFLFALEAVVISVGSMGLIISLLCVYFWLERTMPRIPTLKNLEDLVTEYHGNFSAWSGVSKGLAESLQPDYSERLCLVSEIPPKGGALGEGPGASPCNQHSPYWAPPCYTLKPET

B1: CMP-304, MMP2 cleaved (ligand)
chain: PLGLAGAPTSSSTKKTQLQLEHLLLDLQEILNGINNYKNPKLTR[Nle]L[hSer][Yn3(4)]KF[Ygp(4)][Nle]PKKATELKHLQCLEEELKPLEEVL[hSer]LAQSKNFHLRPRDLISNINVIVLELKGSETTF[hSer]CEYADETATIVEFLNRWITFSQSIISTLT
modifications: ends and bridges not checked; also: MMP2 cleaved, ring opened, cut site and remnants not given here
B2: CMP-305 (ligand)
chain: APTSSSTKKTQLQLEHLLLDLQKILNGINNYKNPKLTR[Nle]L[hSer][Yn3(4)]KF[Ygp(4)][Nle]PKKATELKHLQCLEEELKPLEEVL[hSer]LAQSKNFHLRPRDLISNINVIVLELKGSETTF[hSer]CEYADETATIVEFLNRWITFSQSIISTLT
modifications: bridge 15-23; not fully specified (bridges); ends not checked
B3: CMP-305, MMP2 cleaved (ligand)
chain: APTSSSTKKTQLQLEHLLLDLQKILNGINNYKNPKLTR[Nle]L[hSer][Yn3(4)]KF[Ygp(4)][Nle]PKKATELKHLQCLEEELKPLEEVL[hSer]LAQSKNFHLRPRDLISNINVIVLELKGSETTF[hSer]CEYADETATIVEFLNRWITFSQSIISTLT
modifications: ends and bridges not checked; also: Glu15 and Lys23 side chains carried cleaved peptide linker, remnants after MMP2 cut not given here
B4: CMP-315 (ligand)
chain: APTSSSTKKTQLQLEHLLLDLQKILNGINNYKNPKLTR[Nle]L[hSer][Yn3(4)]KF[Ygp(4)][Nle]PKKATELKHLQCLEEELKPLEEVL[hSer]LAQSKNFHLRPRDLISNINVIVLELKGSETTF[hSer]CEYADETATIVEFLNRWITFSQSIISTLT
modifications: ends and bridges not checked; also: further groups not given here
B5: CMP-315, MMP2 cleaved (ligand)
chain: APTSSSTKKTQLQLEHLLLDLQKILNGINNYKNPKLTR[Nle]L[hSer][Yn3(4)]KF[Ygp(4)][Nle]PKKATELKHLQCLEEELKPLEEVL[hSer]LAQSKNFHLRPRDLISNINVIVLELKGSETTF[hSer]CEYADETATIVEFLNRWITFSQSIISTLT
modifications: ends and bridges not checked; also: MMP2-cleaved, product after cut not given here, further groups not given here
B6: CMP-316 (ligand)
chain: APTSSSTKKTQLQLEHLLLDLQKILNGINNYKNPKLTR[Nle]L[hSer][Yn3]KF[Ygp][Nle]PKKATELKHLQCLEEELKPLEEVL[hSer]LAQSKNFHLRPRDLISNINVIVLELKGSETTF[hSer]CEYADETATIVEFLNRWITFSQSIISTLT
modifications: ends and bridges not checked; also: further groups not given here
B7: CMP-316, MMP2 cleaved (ligand)
chain: APTSSSTKKTQLQLEHLLLDLQKILNGINNYKNPKLTR[Nle]L[hSer][Yn3]KF[Ygp][Nle]PKKATELKHLQCLEEELKPLEEVL[hSer]LAQSKNFHLRPRDLISNINVIVLELKGSETTF[hSer]CEYADETATIVEFLNRWITFSQSIISTLT
modifications: ends and bridges not checked; also: further groups not given here, tested after MMP2 cleavage, remaining product not given here
B8: CMP-329 (ligand)
chain: APTSSSTKKTQLQLEHLLLDLQEILNGINNYKNPKLTR[Nle]L[hSer][Yn3″]KF[Ygp″][Nle]PKKATELKHLQCLEEELKPLEEVL[hSer]LAQSKNFHLRPRDLISNINVIVLELKGSETTF[hSer]CEYADETATIVEFLNRWITFSQSIISTLT
modifications: bridge 9-23; not fully specified (bridges); ends not checked
B9: CMP-329, MMP2 cleaved (ligand)
chain: APTSSSTKKTQLQLEHLLLDLQEILNGINNYKNPKLTR[Nle]L[hSer][Yn3″]KF[Ygp″][Nle]PKKATELKHLQCLEEELKPLEEVL[hSer]LAQSKNFHLRPRDLISNINVIVLELKGSETTF[hSer]CEYADETATIVEFLNRWITFSQSIISTLT
modifications: ends and bridges not checked; also: after MMP2 cleavage, remnants of the Lys9–Glu23 peptide linker not given here
B10: CMP-330 (ligand)
chain: APTSSSTKKTQLQLEHLLLDLQEILNGINNYKNPKLTR[Nle]L[hSer]Y(9x polyethylene glycol‑azido)KFY(8x polyethylene glycol‑amino)[Nle]PKKATELKHLQCLEEELKPLEEVL[hSer]LAQSKNFHLRPRDLISNINVIVLELKGSETTF[hSer]CEYADETATIVEFLNRWITFSQSIISTLT
modifications: bridge 9-23; not fully specified (bridges)
B11: CMP-330, MMP2 cleaved (ligand)
chain: APTSSSTKKTQLQLEHLLLDLQEILNGINNYKNPKLTR[Nle]L[hSer]Y(9x polyethylene glycol‑azido)KFY(8x polyethylene glycol‑amino)[Nle]PKKATELKHLQCLEEELKPLEEVL[hSer]LAQSKNFHLRPRDLISNINVIVLELKGSETTF[hSer]CEYADETATIVEFLNRWITFSQSIISTLT
modifications: not fully specified; also: before the cut Lys9 and Glu23 side chains are bridged by a peptide linker, what remains after the cut not given here
B12: CMP-317 (ligand)
chain: GSGSGSG[PEG4′]APTSSSTKKTQLQLEHLLLDLQEILNGINNYKNPKLTR[Nle]L[hSer][Yn3]KF[Ygp][Nle]PKKATELKHLQCLEEELKPLEEVL[hSer]LAQSKNFHLRPRDLISNINVIVLELKGSETTF[hSer]CEYADETATIVEFLNRWITFSQSIISTLT
modifications: bridge N-31; not fully specified (bridges); ends not checked
B13: CMP-318 (ligand)
chain: SGRVANLVGAPTSSSTKKTQLQLEHLLLDLQEILNGINNYKNPKLTR[Nle]L[hSer][Yn3]KF[Ygp][Nle]PKKATELKHLQCLEEELKPLEEVL[hSer]LAQSKNFHLRPRDLISNINVIVLELKGSETTF[hSer]CEYADETATIVEFLNRWITFSQSIISTLT
modifications: lactam N-32; ends not checked
B14: CMP-320 (ligand)
chain: SGRVAPQPLVDAPTSSSTKKTQLQLEHLLLDLQEILNGINNYKNPKLTR[Nle]L[hSer][Yn3(6)]KF[Ygp(6)][Nle]PKKATELKHLQCLEEELKPLEEVL[hSer]LAQSKNFHLRPRDLISNINVIVLELKGSETTF[hSer]CEYADETATIVEFLNRWITFSQSIISTLT
modifications: lactam N-34
B15: CMP-321 (ligand)
chain: SGRVQPLVDAPTSSSTKKTQLQLEHLLLDLQEILNGINNYKNPKLTR[Nle]L[hSer][Yn3(6)]KF[Ygp(6)][Nle]PKKATELKHLQCLEEELKPLEEVL[hSer]LAQSKNFHLRPRDLISNINVIVLELKGSETTF[hSer]CEYADETATIVEFLNRWITFSQSIISTLT
modifications: lactam N-32
B16: CMP-315, matriptase cleaved (ligand)
chain: APTSSSTKKTQLQLEHLLLDLQKILNGINNYKNPKLTR[Nle]L[hSer][Yn3]KF[Ygp][Nle]PKKATELKHLQCLEEELKPLEEVL[hSer]LAQSKNFHLRPRDLISNINVIVLELKGSETTF[hSer]CEYADETATIVEFLNRWITFSQSIISTLT
modifications: ends and bridges not checked; also: further groups not given here, tested after matriptase cleavage, remaining product not given here

target: T1, IL-2Rβγ on HEK-Blue IL-2Rβγ reporter …; assay: cell-based or functional assay

Binder	Average EC50, HEK-Blue IL-2R (CD122+, CD132+) Reporter Assay, MMP2 cleaved molecule [pM]	Average EC50, HEK-Blue IL-2R (CD122+, CD132+) Reporter Assay, intact molecule [pM]	Average EC50, HEK-Blue IL-2R (CD122+, CD132+) Reporter Assay, Matriptase cleaved molecule [pM]
B1	21		
B2		497	
B3	18.5		
B4		55.4	
B5	41.8		
B6		96.8	
B7	96.3		
B8		1700	
B9	70.2		
B10		1720	
B11	558		
B12		2240	
B13		3370	
B14		775	
B15		4200	
B16			34.9
